Measured values from publication PMC5884710, “Cork-in-Bottle Occlusion of Fluoride Ion Channels by Crystallization Chaperones” (Structure(London, England:1993), 2018).

Molecular target: the molecule itself
Experiment: crystal structure; in meso crystals of the Bpe-S8 complex; 26% PEG 550MME, 0.1 M sodium citrate, pH 5.0; 2.8 A

B1: Fluoride channel from B. pertussis (Fluc homolog Bpe) (natural protein)
chain: MLTYAPLNFIAIGIGATLGAWLRWVLGLRLNGAGWPWGTLTANLVGGYLIGVMVALIASHPEWPAWIRLAAVTGFLGGLTTFSTFSAETVDMLERGVYATAAAYAGASLAGSLAMTGLGLATVRLLLR
notes: Fluc family fluoride ion channel homolog Bpe from B. pertussis; homodimer of two antiparallel subunits (subunits A and B in PDB 6BQO); pET21c with Bpe gene, C-terminal hexahistidine tag; Construct as in Stockbridge et al., 2013; also called Fluc channel; Fluc homologue "Bpe"; source: E. coli, purified (as described in Stockbridge et al., 2013); reconstituted into liposomes for …
stoichiometry N: 2
